doi:10.1101/2019.12.19.882902

Legend:
[1] = target: AF647-TFIIB (TFIIB-SNAP);TBP;TFIIF;RNA polymerase II (human;human;human;human, UniProt Q00403;P20226;P35269;P13984;P24928;P30876;P19387;O15514;P19388;P61218;P62487;P52 …, |||); experiment: EMSA
[2] = target: TFIIB (untagged);TBP;TFIIF;RNA polymerase II (human;human;human;human, UniProt Q00403;P20226;P35269;P13984;P24928;P30876;P19387;O15514;P19388;P61218;P62487;P52 …, |||); experiment: EMSA
Chain of TFIIB (untagged);TBP;TFIIF;RNA polymerase II (Q00403 whole entry, chain 1 of 2): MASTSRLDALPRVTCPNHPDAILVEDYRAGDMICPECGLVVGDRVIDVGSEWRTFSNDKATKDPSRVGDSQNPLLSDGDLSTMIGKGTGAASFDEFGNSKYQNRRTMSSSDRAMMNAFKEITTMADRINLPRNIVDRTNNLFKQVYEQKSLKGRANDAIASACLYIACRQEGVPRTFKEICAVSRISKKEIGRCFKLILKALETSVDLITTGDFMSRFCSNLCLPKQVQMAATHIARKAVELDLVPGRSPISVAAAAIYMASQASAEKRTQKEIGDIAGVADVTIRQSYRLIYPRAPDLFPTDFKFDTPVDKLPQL
Chain of TFIIB (untagged);TBP;TFIIF;RNA polymerase II (P20226 whole entry, chain 2 of 2): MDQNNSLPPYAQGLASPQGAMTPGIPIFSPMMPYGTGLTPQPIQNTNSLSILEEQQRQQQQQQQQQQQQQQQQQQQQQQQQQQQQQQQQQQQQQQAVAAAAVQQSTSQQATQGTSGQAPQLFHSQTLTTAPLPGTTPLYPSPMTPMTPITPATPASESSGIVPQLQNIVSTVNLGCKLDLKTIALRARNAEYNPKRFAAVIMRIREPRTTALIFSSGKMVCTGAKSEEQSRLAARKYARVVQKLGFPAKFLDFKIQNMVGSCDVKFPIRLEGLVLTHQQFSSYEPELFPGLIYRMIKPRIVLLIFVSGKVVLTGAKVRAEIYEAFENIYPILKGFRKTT

Chain of AF647-TFIIB (TFIIB-SNAP);TBP;TFIIF;RNA polymerase II (Q00403 whole entry, chain 1 of 2): as the sequence (Q00403 whole entry, chain 1 of 2) above
Chain of AF647-TFIIB (TFIIB-SNAP);TBP;TFIIF;RNA polymerase II (P20226 whole entry, chain 2 of 2): as the sequence (P20226 whole entry, chain 2 of 2) above

B1: three piece AdMLP DNA (-40 to +37), pre-melted bubble (dsDNA)
DNA 1: AAGGGGGGCTATAAAAGGGGGTGGGGGCGCGAAGCAGGAGTAGACTATCTTTAATCACTA
DNA 2: CCTGAGGTTAGTGTGAGTAGTGATTAAAGATAGTGATGAGGACGAACGCGCCCCCACCCCCTTTTATAGCCCCCCTT
DNA 3: CTCACACTAACCTCAGG
binding result [1]: binds | binding result [2]: binds
